Laboratory results reported in publication PMC5690283.

Target: E-Syt2 C2B domain (within the E-syt2 C2AB construct, 343-646, C611S) (human)
Assay: single-molecule force spectroscopy (optical tweezers); the two C2 domains stand on one chain (C2AB); N-terminus held by biotin-streptavidin on a bilayer-coated silica bead or a streptavidin-coated bead, C-terminus on a DNA handle to a polystyrene bead; pulled at 10 nm/s or held at constant trap separation; 25 mM HEPES pH 7.4, 200 mM NaCl, 100 uM Ca2+, room temperature (~23 C)

force at which the two domains dissociate: 8 to 13 pN | force of reversible dissociation and re-association: 11 pN
Substance: E-Syt2 C2A domain (within the E-syt2 C2AB construct, 343-646, C611S) (domain or fragment)
